Measured values published in patent US20240010741A1 (MAB DISCOVERY, published 2024).

Columns and labels:
[1] = molecular target: T1, Recombinant cyno-CD40 protein (Acro Biosystems) (cynomolgus monkey (Macaca fascicularis), UniProt G7PG38 21-193); assay: ELISA on coated recombinant cynomolgus monkey CD40
T1 construct: also called cynomolgus monkey-CD40 protein; recombinant cynomolgus monkey CD40 recombinant protein
Protocol: Binding of humanized anti-CD40 IgG1-LALA monoclonal antibodies to cynomolgus monkey-CD40 protein was tested in a biochemical ELISA. Recombinant cyno-CD40 protein (Acro Biosystems) was incubated in a 384-well Nunc™ MaxiSorp™ plate at a concentration of 0.5 μg/ml in PBS for one hour at room temperature. After washing three times with wash buffer (PBS, 0.1% Tween), plates were blocked with PBS, 2% BSA, 0.05% Tween for one hour at room temperature. Plates were washed again three time with wash buffer and antibodies at concentrations ranging from 500 to 0.03 ng/ml in PBS, 0.5% BSA, 0.05% Tween were incubated for one hour at room temperature. After 3 washes in wash buffer, wells were incubated with 12.5 μl of a 1:3000 dilution of anti-human peroxidase-linked, species specific F(ab) 2 Fragment from goat (AbD Serotec) in ELISA buffer for one hour at room temperature. Wells were washed six times with wash buffer and 15 μl/well TMB substrate solution (Invitrogen) were added. After 10 minutes at room temperature 15 μl Stop solution (1M HCl) were added per well and absorbance at 450 and 620 nm wavelength was measured using a Tecan M1000 microplate reader. Fitting curves and EC50 calculation were obtained by using Excel (Microsoft) and XLfit (IDBS).

[2] = molecular target: soluble human CD40 monomeric protein (Acro Biosystems) (human, UniProt P25942 21-193); assay: SPR Biacore T200, antibody captured via anti-human Fc, soluble CD40 as analyte, 1:1 model
Protocol: (§1) a. The biochemical affinities of the antibodies of the invention was determined by surface plasmon resonance measurements. Antibodies were reversibly immobilized to a CM5 sensor chip surface via an anti-human Fc antibody. The kinetics of the interaction of immobilized antibodies with soluble human or cynomolgus monkey CD40 monomeric protein (Acro Biosystems) were analysed on a Biacore T200 SPR instrument. Kinetic data were determined using a Langmuir 1:1 binding model.
(§2) Biochemical affinities were measured by surface plasmon resonance on a Biacore T200 SPR instrument. Kinetic data were determined using a Langmuir 1:1 binding model.

cell-expressed CD40 [3] = molecular target: T2, cell-expressed CD40 (UniProt P25942 21-277, limits assumed); assay: cell binding on HEK-Blue-CD40L cells, Alexa-Fluor-488 anti-human IgG, high content imaging
T2 construct: whole, on cells; also called CD40 on HEK-Blue-CD40L cells; cell surface CD40
Protocol: Antibodies were added to final concentrations ranging from 1.25 μg/ml to 0.01 ng/ml in 5 μl medium. After 24h cells were washed three times with 25 μl wash buffer (PBS, 0.05% Tween) before Alexa-Fluor-488-conjugated goat anti-human-IgG (Jackson Laboratories) was added at a concentration of 0.8 μg/ml in 20 μl medium. Four hours later, 5 μl Hoechst dye in medium was added to a final concentration of 51.1 µg/ml. Fluorescent cell binding signals were measured using a CellInsight automated high content imager (Thermo Fisher Scientific). Fitting curves and EC50 calculation were obtained by using Excel (Microsoft) and XLfit (IDBS).

[4] = molecular target: T3, soluble cynomolgus monkey CD40 monomeric protein (Acro Biosystems) (cynomolgus monkey, UniProt G7PG38 21-193); assay: SPR (Biacore T200), antibody captured via anti-human Fc on CM5 chip, soluble cynomolgus CD40 as analyte, Langmuir 1:1 model
T3 construct: May be the same reagent as m11; also called cynomolgus monkey CD40 protein
Protocol: as §1, §2

recombinant CD40 protein = molecular target: T4, recombinant CD40 protein (UniProt P25942 21-193, limits assumed); assay: CD40L competition ELISA: antibody (5 µg/ml) preincubated with recombinant CD40 (1.7 µg/ml), complex added to coated CD40L, detected with anti-human F(ab)2-peroxidase; a low signal means competition with CD40L
T4 construct: Construct not described; also called CD40 recombinant protein
Protocol: Competition of humanized anti-CD40 IgG1-LALA monoclonal antibodies with CD40L binding to CD40 was tested using an ELISA assay. CD40L was coated to the surface of a 384-well Nunc™ MaxiSorp™ plate in a volume of 25 μl PBS and at a concentration of 1 μg/ml for one hour at room temperature. Antibodies were pre-incubated at a concentration of 5 μg/ml with recombinant CD40 protein at a concentration of 1.7 μg/ml in a total volume of 40 μl for 1.5 hours at room temperature in ELISA buffer (PBS, 0.5% BSA, 0.05% Tween). The Nunc™ MaxiSorp™ plate was washed three times with wash buffer (PBS, 0.1% Tween) and blocked for one hour at room temperature with PBS, 2% BSA, 0.05% Tween. After three washes in wash buffer, 25 μl of the antibody-CD40 complex were added to the Nunc™ MaxiSorp™ plate wells and incubated for one hour at room temperature. After 3 washes in wash buffer, wells were incubated with 25 μl of a 1:2000 dilution of anti-human peroxidase-linked, species specific F(ab) 2 Fragment from goat (AbD Serotec) in ELISA buffer for one hour at room temperature. Wells were washed six times with wash buffer and 30 μl/well TMB substrate solution (Invitrogen) were added. After 10 minutes at room temperature, 30 μl Stop solution (1M HCl) was added per well and absorbance at 450 and 620 nm wavelength was measured using a Tecan M1000 microplate reader.

cell-expressed CD40 [5] = molecular target: T2, cell-expressed CD40; assay: flow cytometry on HEK-Blue-CD40L cells preincubated with isotype control IgG1-LALA, CD40L-mouse IgG2a Fc titrated, DyLight 405 anti-mouse IgG [Detection of CD40L binding]
Protocol: (§3) a. Binding of anti CD40 antibodies of the invention to HEK-Blue-CD40L™ cells in the presence of CD40L was tested to verify whether the antibodies bind to the CD40L binding site of cell surface CD40. […] CD40L containing a mouse-IgG2a Fc-tag (AB Biosciences) was added at concentration ranging from 10000 to 9.8 ng/ml and cells were incubated for 60 minutes at 4° C. Anti-CD40 antibodies and CD40L bound to cell-expressed CD40 were detected using secondary DyLight 405-conjugated anti-mouse IgG and Alexa Fluor 488-conjugated anti-human IgG (Jackson Laboratories) and analyzed using FACSVerse instrument (BD).

cell-expressed CD40 [6] = molecular target: T2, cell-expressed CD40; assay: flow cytometry on HEK-Blue-CD40L cells preincubated with CP870,893 IgG1-LALA at EC90, CD40L-mouse IgG2a Fc titrated, DyLight 405 anti-mouse IgG [Detection of CD40L binding]
Protocol: as §3

T4 sequence (P25942 21-193 limits assumed): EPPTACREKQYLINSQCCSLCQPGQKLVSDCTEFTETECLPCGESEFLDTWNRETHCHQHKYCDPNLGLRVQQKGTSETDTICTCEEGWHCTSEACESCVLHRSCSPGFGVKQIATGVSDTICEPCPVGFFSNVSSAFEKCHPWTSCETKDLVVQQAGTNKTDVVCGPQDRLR
Chain of soluble human CD40 monomeric protein (Acro Biosystems) (P25942 21-193 limits assumed): as above
T2 sequence (P25942 21-277 limits assumed): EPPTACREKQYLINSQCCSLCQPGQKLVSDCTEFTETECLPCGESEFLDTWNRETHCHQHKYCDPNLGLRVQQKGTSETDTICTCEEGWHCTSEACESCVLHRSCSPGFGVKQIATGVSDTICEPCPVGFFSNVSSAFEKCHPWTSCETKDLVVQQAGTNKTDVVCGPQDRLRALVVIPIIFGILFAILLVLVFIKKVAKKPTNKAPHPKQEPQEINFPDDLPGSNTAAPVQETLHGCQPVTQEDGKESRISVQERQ

B1: MAB-16-0262 (antibody, V domains shown)
VH: EVQLEESGGGLVQPGGSLRLSCAASGFDFSTNAMCWVRQAPGKGLEWVACIAAGSSIITYYASWAKGRFTISKDTSKTTLYLQMNSLRAEDTAVYFCARGLSRFALWGQGTLVTVSS
VL: DIVMTQSPSSLSASVGDRVTITCQASQSISSYLSWYQQKPGQAPKLLIYLTSTLASGVPSRFSGSGSGTDFTLTISSLQPEDFATYYCQGYYSSSSYVSNGFGQGTKVVIK
notes: Humanized IgG1-LALA (L234A, L235A in the human IgG1 Fc, EU numbering)
EC50 [1]: 11.9 ng/mL | Kd [2]: 15.7 nM | EC50 (cell-expressed CD40 [3]): 6.3 ng/mL | Kd [4]: 10.3 nM | OD at 450 nm (recombinant CD40 protein): 0.11 OD

B2: MAB-16-0346 (antibody, V domains shown)
VH: EVQLEESGGGLVQPGGSLRLSCAASGFDFSTNAVSWVRQAPGKGLEWVGSISAGSSGSTYYASWAKGRFTISKDTSKTTLYLQMNSLRAEDTATYFCARGYTYLTLWGQGTLVTVSS
VL: DIVMTQSPSSLSASVGDRVTITCQASHSISSTYLSWYQQKPGQAPKLLIYRASTLASGVPSRFSGSGSGTDFTLTISSLQPEDFATYYCQYTDYGSSYVSTFGQGTKVVIK
notes: humanized anti-CD40 IgG1-LALA antibody of the invention
EC50 [1]: 8.2 ng/mL | EC50 (cell-expressed CD40 [3]): 49.5 ng/mL | OD at 450 nm (recombinant CD40 protein): 0.09 OD

B3: MAB-16-0451 (antibody, V domains shown)
VH: EVQLEESGGGLVQPGGSLRLSCAASGFDFSSNTMCWVRQAPGKGLEWVACIYAGSSGSTYYASWAKGRFTISKDISKTTLYLQMNSLRAEDTATYFCARGLSRFSLWGQGTLVTVSS
VL: DIVMTQSPSSLSASVGDRVTITCQASQSISNYLAWYQQKPGQAPKLLIYDASKLASGVPSRFSGSGSGTDFTLTISSLQPEDFATYYCQGGDYYGSSYVVAFGGGTKVVIK
notes: as for B1
EC50 [1]: 10.4 ng/mL | Kd [2]: 1.2 nM | EC50 (cell-expressed CD40 [3]): 8.9 ng/mL | Kd [4]: 0.8 nM | OD at 450 nm (recombinant CD40 protein): 0.13 OD

B4: MAB-16-0489 (antibody, V domains shown)
VH: EVQLEESGGGLVQPGASLRLSCAASGIDFSRYFYVCWVRQAPGKGLEWVGCFANHDDSIYYAGWMNGRFTISKDTSKTTLYLQMNSLRAEDTATYFCARGVDYTVGYGGAAFNLWGQGTLVTVSS
VL: DIVMTQSPSSLSASVGDRVTITCQASQSIGSYLSWYQQKPGQAPKLLIYRATTLASGVPSRFSGSGSGTDFTLTISSLQPEDFATYYCQSYYRDSSSSAFGQGTKVVIK
notes: as for B2
EC50 (cell-expressed CD40 [3]): 3.2 ng/mL | OD at 450 nm (recombinant CD40 protein): 0.01 OD

B5: MAB-16-0484 (antibody, V domains shown)
VH: EVQLEESGGGLVQPGGSLRLSCAASGIDFSRYYYICWVRQAPGKGPEWVACFANGDGSTYYASWAKGRFTISKDTSKTTLYLQMNSLRAEDTATYFCARGADYSGGAAAFNLWGQGTLVTVSS
VL: DIQMTQSPSSLSASVGDRVTITCQASQSISSRLAWYQQKPGQAPKLLIYRASTLASGVPSRFSGSGSGTDFTLTISSLQPEDFATYYCQDYYGSSTEYNAFGQGTKVVIK
notes: as for B2
EC50 [1]: 31.8 ng/mL | EC50 (cell-expressed CD40 [3]): 21.9 ng/mL | OD at 450 nm (recombinant CD40 protein): 0.07 OD

B6: MAB-16-0406 (antibody, V domains shown)
VH: EVQLEESGGGLVQPGGSLRLSCAASGIDFSRYYYMCWVRQAPGKGPEWVACYSNGDGSTYYASWAKGRFTISKDTSKTTLYLQMNSLRAEDTATYFCARGADYSAGAAAFNLWGQGTLVTVSS
VL: DIQMTQSPSSLSASVGDRVTITCQASESIGNALVWYQQKPGQAPKLLIYRASILASGVPSRFSGSGSGTDFTLTISSLQPEDFATYYCQDYYGSSTEYNTFGQGTKVVIK
notes: as for B2
EC50 [1]: 11.1 ng/mL | EC50 (cell-expressed CD40 [3]): 6.6 ng/mL | OD at 450 nm (recombinant CD40 protein): 0.07 OD

B7: MAB-16-0464 (antibody, V domains shown)
VH: EVQLEESGGGLVQPGGSLRLSCAASGFDFSSNAMSWVRQAPGKGLEWVGTIYAGSNGNTDYASWAKGRFTISKDTSKTTLYLQMNSLRAEDTATYFCARGASYFTLWGQGTLVTVSS
VL: DIVMTQSPSSLSASVGDRVTITCQASESVVSNNRLAWYQQKPGQAPKLLIYLASTLPSGVPSRFSGSGSGTDFTLTISSLQPEDFATYYCAGYKSSSTDGTAFGQGTKVVIK
notes: as for B1
EC50 [1]: 8 ng/mL | Kd [2]: 2.6 nM | EC50 (cell-expressed CD40 [3]): 3 ng/mL | Kd [4]: 2.2 nM | OD at 450 nm (recombinant CD40 protein): 0.09 OD

B8: MAB-16-0267 (antibody, V domains shown)
VH: EVQLEESGGDLVQPGASLRLSCAASGFDFNSNAMSWVRQAPGKGLEWVASIYAGGSGSTYYASWAKGRFTISKDTSKTTLYLQMNSLRAEDTATYFCARGITRLPLWGQGTLVTVSS
VL: DIQMTQSPSSLSASVGDRVTITCQASQSISSYLAWYQQKPGQAPKLLIYDASKLASGVPSRFSGSGSGTDFTLTISSLQPEDFATYYCQGTYYGSTTISAFGQGTKVVIK
notes: as for B2
EC50 [1]: 7 ng/mL | EC50 (cell-expressed CD40 [3]): 3.4 ng/mL | OD at 450 nm (recombinant CD40 protein): 0.1 OD

B9: MAB-16-0400 (antibody, V domains shown)
VH: EVQLEESGGGLVQPGGSLRLSCAASGIDFSRYFYMCWVRQAPGKGLEWVACIGPGVSGDTYYASWAKGRFTISGDTSKTTLYLQMNSLRAEDTATYFCARGVDYTYGDAGAAFNLWGQGTLVTVSS
VL: DIVMTQSPSSLSASVGDRVTITCQASQSISSYLAWYQQKPGQAPKLLIYRASILASGVPSRFSGSGSGTDFTLTISSLQPEDFATYYCQTYYSSRTYSYGSPNAFGQGTKVVIK
notes: as for B2
EC50 (cell-expressed CD40 [3]): 5.8 ng/mL | OD at 450 nm (recombinant CD40 protein): 0.08 OD

B10: CP-870,893 (antibody, V domains shown)
VH: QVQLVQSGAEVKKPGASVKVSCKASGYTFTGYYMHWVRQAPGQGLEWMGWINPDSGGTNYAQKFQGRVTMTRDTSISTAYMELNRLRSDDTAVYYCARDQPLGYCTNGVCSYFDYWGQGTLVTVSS
VL: DIQMTQSPSSVSASVGDRVTITCRASQGIYSWLAWYQQKPGKAPNLLIYTASTLQSGVPSRFSGSGSGTDFTLTISSLQPEDFATYYCQQANIFPLTFGGGTKVEIKR
EC50 [1]: 8 ng/mL | Kd [2]: 8.9 nM

B11: CD40L containing a mouse-IgG2a Fc-tag (AB Biosciences) (Fc fusion, UniProt P29965 113-261, looked up)
chain: MQKGDQNPQIAAHVISEASSKTTSVLQWAEKGYYTMSNNLVTLENGKQLTVKRQGLYYIYAQVTFCSNREASSQAPFIASLCLKSPGRFERILLRAANTHSSAKPCGQQSIHLGGVFELQPGASVFVNVTDPSQVSHGTGFTSFGLLKL
notes: not shown: mouse IgG2a Fc tag
EC50 (read off the curve) (cell-expressed CD40 [5]): ~200 ng/mL | EC50 (read off the curve) (cell-expressed CD40 [6]): ~400 ng/mL
